# Data as given in US20240002497A1 (Merck Sharp & Dohme, published 2024).
# Read-outs that look alike come from different tables or passages of the source.
# B1: F0103387G05 (parental)-FLAG-HIS6 (VHH)
# VHH: EVQLVESGGGLVQAGGSLRLSCDASGRILRIGYMRWHRQGAGKQREFVARITDDSATDYADSVKGRFTISRDNAKNTVYLQMNNLNPEDTAVYYCEALVTASVRGGSIHSGTYWGRGTLVTVSS
# B2: F0103362B08 (parental)-FLAG-HIS6 (VHH)
# VHH: EVQLVESGGGLVQAGGSLRLSCAASVRPFSTSAMGWFRQAPEKEREAVAGILWNGIVTYYADSVKGRFTISRDNAKNEVYLQMNKLKPEDTAVYYCALDRDYGGRSFSAYEYEYWGQGTLVTVSS
# B3: F0103275B05 (parental)-FLAG-HIS6 (VHH)
# VHH: EVQLVESGGGLVQPGGSLRLSCAASGSIFNINSMAWYRRAPGKQRELVASSTNGGSTNYADSVKGRFTISRDNAKRVYLQMNSLTPEDTAVYYCNALLQPSIYDISRTYWGQGTLVTVSS
# notes: also called F01033275B05
# B4: 66ASP (Fc fusion)
# chain: EVQLVESGGGLVQPGGSLRLSCAASGPVFNINSMAWYRRAPGKQRELVAYSTPGWDWNYADSVKGRFTISRDNAKRVYLQMNSLTPEDTAVYYCRWLLQPSIYDISRTYWGQGTLVTVSS
# notes: also called F010300659-5GS-Fc; not shown: 5GS linker; Fc moiety
# B5: F010300659 (VHH)
# VHH: EVQLVESGGGLVQPGGSLRLSCAASGPVFNINSMAWYRRAPGKQRELVAYSTPGWDWNYADSVKGRFTISRDNAKRVYLQMNSLTPEDTAVYYCRWLLQPSIYDISRTYWGQGTLVTVSS
# notes: also called F0103275B05(S27P, I28V, S50Y, N53P, G55W, S56D, T57W, N93R, A94W)-FLAG3 + HIS6
# B6: F010302375 (bispecific antibody)
# chain: DVQLVESGGGLVQPGGSLRLSCAASGSIFNINSMAWYRRAPGKQRELVASSTNGGSTNYADSVKGRFTISRDNAKRVYLQMNSLTPEDTAVYYCRALLQPSIYDISRTYWGQGTLVTVSSGGGGSGGGGSGGGGSGGGGSGGGGSGGGGSGGGGSGGGGSGGGGSGGGGSEVQLVESGGGLVQAGGSLRLSCAASGRAFSTLAMGWFRQAPGKEREFVAAISRNGNNSATGDSLKGRFTISRDSTKSTVFLQMNTLKPEDTAVYYCAAISTPSASHPYVRKESYRYWGQGTQVTVSSGAADYKDHDGDYKDHDIDYKDDDDKGAAHHHHHH
# notes: also called F0103275B05(E1D, N93R)-50GS-F0103478E09(L108Q)-FLAG3-HIS6
# B7: F0103454D07 (parental)-FLAG-HIS6 (VHH)
# VHH: EVQLVESGGGLVQPGGSLRLSCVASGGIININYIAWYRQTPGKQRDLVARISSDDTIKYGDSVKGRFAMSRDKVKNMVHLQMNSLTTEDTGVYVCSALITPWTGDTRTYWGRGTLVTVSS
# Legend:
# huNav1.7α+β1 [1] = target: T1, huNav1.7α+β1 (human, UniProt Q15858 1-1988; Q07699 19-218); assay: binding FACS, HEK293 cells
# T1 construct: also called huNav1.7-beta1; HEKa/β1
# Procedure: (§1) Binding of the ISVDs to cell-expressed Nav1.7α was detected via murine anti-Flag (Sigma, catalog #F1804). Briefly, cells were resuspended in FACS buffer (PBS, 10% FBS, NaN₃) and transferred to a 96-well V-bottom plate at 1×10^5 cells/well. Purified FLAG3-tagged ISVD was diluted in FACS buffer and added to the cells for 30 minutes at 4° C. […] Prior to the read-out, the samples were resuspended in 1 μg/mL propidium iodide (Sigma, catalog #P4170) to exclude dead cells. Between each step, the cells were centrifuged for 5 minutes at 200 grams and washed with 100 μL/well FACS buffer.
# (§2) Crude periplasmic extracts containing ISVDs from phage display selections (as described above) were screened in FACS for binding to huNav1.7α but not to huNav1.5a. […] As used in Table 8, the drawings, and throughout the description, Navβ1, Navβ2, and Navβ3 are human homologs unless specifically identified otherwise.
# huNav1.5α+β1-β2-β3 = target: T2, huNav1.5α+β1-β2-β3 (human, UniProt Q14524 1-2016; A5A6L6 19-218; O60939 30-215; Q2KI11 23-215); assay: binding FACS, HEK FlpIn cells
# T2 construct: in the cell P2A cleaves it into α, β1, β2, β3; also called huNav1.5-beta1-beta2-beta3
# Procedure: as §1, §2
# huNav1.7α+β1-β2-β3 [2] = target: T3, huNav1.7α+β1-β2-β3 (human, UniProt Q15858 1-1988; Q07699 19-218; O60939 30-215; Q9NY72 23-215); assay: binding FACS, HEK FlpIn cells
# T3 construct: 5N11S variant; also called huNav1.7-beta1-beta2-beta3; huNav1.7α+Navβ1-Navβ2-Navβ3
# Procedure: as §1, §2
# [3] = target: T4, huNav157chimera14+β1-β2-β3 (human, UniProt Q07699 19-218; O60939 30-215; Q9NY72 23-215); assay: binding FACS, HEK FlpIn cells
# T4 construct: HEK FlpIn line; also called huNav157 chimera 14-beta1-beta2-beta3; Nav157ch14-β1-β2-β3
# Procedure: as §1, §2
# rhNav1.7α+β1-β2-β3 = target: T5, rhNav1.7α+β1-β2-β3 (rhesus monkey α subunit with human β …); assay: binding FACS, CHO FlpIn cells
# T5 construct: P2A cleaves it into α, β1, β2, β3; also called rhNav1.7-beta1-beta2-beta3
# Procedure: as §1, §2
# huNav1.7α [4] = target: T6, huNav1.7α (human, UniProt Q15858 1-1988); assay: binding FACS, HEKa cells
# T6 construct: HEK cells expressing the α subunit alone; also called HEKa; HEK huNav1.7α
# Summary of the method: (§3)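 Flow cytometry read-out of anti-Flag signal on propidium iodide-negative cells measured ISVD binding. Purified FLAG3-tagged ISVD, diluted in PBS with 10% FBS and NaN₃, was applied to the cells for 30 minutes at 4° C.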
# huNav1.2α = target: T7, huNav1.2α (human, UniProt Q99250 1-2005); assay: binding FACS on stable huNav1.x paralog HEK293T cell lines
# T7 construct: also called huNav1.2 (alpha subunit)
# huNav1.5α = target: T8, huNav1.5α (human, UniProt Q14524 1-2016); assay: as above
# T8 construct: also called huNav1.5 (alpha subunit)
# huNav1.8α = target: T9, huNav1.8α (human, UniProt Q9Y5Y9 1-1956); assay: as above
# T9 construct: also called huNav1.8 (alpha subunit)
# huNav1.1α = huNav1.1α (human, UniProt P35498 1-2009); assay: as above
# huNav1.4α = target: T10, huNav1.4α (human, UniProt P35499 1-1836); assay: as above
# T10 construct: also called huNav1.4 (alpha subunit)
# huNav1.3α = target: T11, huNav1.3α (human, UniProt Q9NY46 1-2000); assay: as above
# T11 construct: also called huNav1.3 (alpha subunit)
# huNav1.6α = target: T12, huNav1.6α (human, UniProt Q9UQD0 1-1980); assay: as above
# T12 construct: also called huNav1.6 (alpha subunit)
# huNav1.7α+β1-β2-β3 [5] = target: T3, huNav1.7α+β1-β2-β3; assay: binding FACS, CHO FlpIn cells
# Summary of the method: as §3
# huNav1.7α+β1 [6] = target: T1, huNav1.7α+β1; assay: binding FACS, HEKa/β1 cells
# Summary of the method: as §3
# huNav1.7α + β1 [7] = target: huNav1.7α + β1 (human); assay: cell-based or functional assay
# huNav1.7α+β1-β2-β3 [8] = target: T3, huNav1.7α+β1-β2-β3; assay: binding FACS, CHO FlpIn cells; remark: listed apart in the source
# Procedure: as §1, §2
# huNav1.7α [9] = target: T6, huNav1.7α; assay: binding FACS, HEKa cells; remark: listed apart in the source
# huNav1.7α+β1 [10] = target: T1, huNav1.7α+β1; assay: binding FACS, HEKa/β1 cells; remark: listed apart in the source
# huNav1.7α + β1 [11] = target: T13, huNav1.7α + β1 (human); assay: binding FACS, HEK
# T13 construct: HEK293 cells; also called huNav1.7-beta1; huNav1.7-β1
# huNav1.7α [12] = target: T14, huNav1.7α (human, UniProt Q15858 1-1988); assay: binding FACS, HEK
# T14 construct: HEK cells expressing the α subunit without β subunits; also called huNav1.7 (alpha-subunit); Human Nav1.7α
# huNav1.7α + β1 [13] = target: T13, huNav1.7α + β1; assay: cell-based or functional assay; remark: listed apart in the source
# rhNav1.7α + β1-β2-β3 [14] = target: rhNav1.7α + β1-β2-β3 (rhesus monkey); assay: cell-based or functional assay
# huNav1.7α + β1 [15] = target: T13, huNav1.7α + β1; assay: cell-based or functional assay; remark: listed apart in the source
# rhNav1.7α + β1-β2-β3 [16] = target: rhNav1.7α + β1-β2-β3 (rhesus monkey); assay: cell-based or functional assay; remark: listed apart in the source
# huNav1.7α + β1-β2-β3 [17] = target: T15, huNav1.7α + β1-β2-β3 (human, UniProt Q15858 1-1988; A5A6L6 19-218; O60939 30-215; Q2KI11 23-215); assay: cell-based or functional assay
# Rhesus Nav1.7α = Rhesus Nav1.7α (rhesus, UniProt Q15858 1-1988 (human entry)); assay: cell-based or functional assay
# huNav1.7α [18] = target: T14, huNav1.7α; assay: cell-based or functional assay
# rhNav1.7α + β1-β2-β3 [19] = target: rhNav1.7α + β1-β2-β3 (rhesus monkey); assay: cell-based or functional assay; remark: listed apart in the source
# huNav1.7α + β1-β2-β3 [20] = target: T15, huNav1.7α + β1-β2-β3; assay: competition FACS vs EC25 of F103275B05(N93R), HEK FlpIn
# huNav1.7α + β1-β2-β3 [21] = target: T15, huNav1.7α + β1-β2-β3; assay: competition FACS vs EC25 of F103275B05(N93R), CHO FlpIn
# huNav1.7α + β1 [22] = target: T13, huNav1.7α + β1; assay: competition FACS vs EC25 of F103275B05(N93R), HEK
# huNav1.7α [23] = target: T14, huNav1.7α; assay: competition FACS vs EC25 of F103275B05(N93R), HEK
# rhNav1.7α + β1-β2-β3 [24] = target: T16, rhNav1.7α + β1-β2-β3 (rhesus monkey); assay: competition FACS vs EC40 of F103275B05(N93R), CHO FlpIn
# T16 construct: also called rhNav1.7-beta1-beta2-beta3; rhNav1.7-β1-β2-β3
# T7 sequence (Q99250 whole entry): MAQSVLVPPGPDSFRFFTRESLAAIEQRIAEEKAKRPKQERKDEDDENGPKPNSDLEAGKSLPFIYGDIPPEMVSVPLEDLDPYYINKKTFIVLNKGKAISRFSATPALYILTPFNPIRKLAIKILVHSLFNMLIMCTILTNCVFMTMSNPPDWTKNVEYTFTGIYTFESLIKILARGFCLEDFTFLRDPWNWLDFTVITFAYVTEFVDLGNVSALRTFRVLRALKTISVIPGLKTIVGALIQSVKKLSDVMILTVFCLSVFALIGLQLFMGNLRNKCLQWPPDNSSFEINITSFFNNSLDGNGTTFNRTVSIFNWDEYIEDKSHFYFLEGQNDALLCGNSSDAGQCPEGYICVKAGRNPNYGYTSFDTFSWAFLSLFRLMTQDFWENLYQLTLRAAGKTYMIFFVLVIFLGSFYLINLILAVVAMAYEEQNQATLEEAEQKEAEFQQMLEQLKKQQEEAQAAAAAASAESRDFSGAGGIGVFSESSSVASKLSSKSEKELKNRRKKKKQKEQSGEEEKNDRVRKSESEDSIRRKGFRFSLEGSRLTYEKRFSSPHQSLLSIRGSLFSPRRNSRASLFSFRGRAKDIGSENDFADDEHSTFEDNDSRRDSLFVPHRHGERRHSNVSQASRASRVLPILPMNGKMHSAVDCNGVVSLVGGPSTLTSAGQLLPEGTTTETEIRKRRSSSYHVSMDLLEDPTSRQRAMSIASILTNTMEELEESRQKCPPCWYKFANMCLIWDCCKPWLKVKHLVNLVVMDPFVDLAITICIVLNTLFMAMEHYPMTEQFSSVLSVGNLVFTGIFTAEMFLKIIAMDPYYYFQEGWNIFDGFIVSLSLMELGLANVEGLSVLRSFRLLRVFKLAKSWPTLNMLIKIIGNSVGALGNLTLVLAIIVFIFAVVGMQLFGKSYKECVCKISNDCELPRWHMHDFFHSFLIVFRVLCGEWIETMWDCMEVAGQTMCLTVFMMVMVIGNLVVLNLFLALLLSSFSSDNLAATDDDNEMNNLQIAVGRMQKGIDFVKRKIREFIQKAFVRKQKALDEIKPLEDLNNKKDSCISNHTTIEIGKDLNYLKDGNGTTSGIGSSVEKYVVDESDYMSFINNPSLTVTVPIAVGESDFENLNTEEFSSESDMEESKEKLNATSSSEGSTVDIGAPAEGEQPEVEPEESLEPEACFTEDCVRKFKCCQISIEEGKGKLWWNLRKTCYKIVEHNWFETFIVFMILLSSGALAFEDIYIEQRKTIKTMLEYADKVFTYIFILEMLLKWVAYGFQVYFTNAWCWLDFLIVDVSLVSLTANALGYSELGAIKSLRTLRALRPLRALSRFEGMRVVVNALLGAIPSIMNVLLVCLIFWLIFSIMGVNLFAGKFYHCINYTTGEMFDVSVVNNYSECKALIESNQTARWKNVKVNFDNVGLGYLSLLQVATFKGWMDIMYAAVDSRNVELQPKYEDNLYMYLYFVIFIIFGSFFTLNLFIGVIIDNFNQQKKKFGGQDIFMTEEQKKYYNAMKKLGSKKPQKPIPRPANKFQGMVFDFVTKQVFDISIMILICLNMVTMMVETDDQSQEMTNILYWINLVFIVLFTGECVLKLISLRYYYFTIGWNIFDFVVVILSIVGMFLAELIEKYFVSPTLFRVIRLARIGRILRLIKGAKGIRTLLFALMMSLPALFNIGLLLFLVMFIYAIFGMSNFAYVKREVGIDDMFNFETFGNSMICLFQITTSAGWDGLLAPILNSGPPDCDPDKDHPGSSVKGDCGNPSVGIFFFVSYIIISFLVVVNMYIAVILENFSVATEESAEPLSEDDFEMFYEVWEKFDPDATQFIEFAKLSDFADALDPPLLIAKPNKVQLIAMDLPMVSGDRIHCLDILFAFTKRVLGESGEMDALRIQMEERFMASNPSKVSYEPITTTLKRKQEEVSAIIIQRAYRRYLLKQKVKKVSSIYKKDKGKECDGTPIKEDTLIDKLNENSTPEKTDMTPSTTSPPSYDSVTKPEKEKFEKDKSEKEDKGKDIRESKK
# T9 sequence (Q9Y5Y9 whole entry): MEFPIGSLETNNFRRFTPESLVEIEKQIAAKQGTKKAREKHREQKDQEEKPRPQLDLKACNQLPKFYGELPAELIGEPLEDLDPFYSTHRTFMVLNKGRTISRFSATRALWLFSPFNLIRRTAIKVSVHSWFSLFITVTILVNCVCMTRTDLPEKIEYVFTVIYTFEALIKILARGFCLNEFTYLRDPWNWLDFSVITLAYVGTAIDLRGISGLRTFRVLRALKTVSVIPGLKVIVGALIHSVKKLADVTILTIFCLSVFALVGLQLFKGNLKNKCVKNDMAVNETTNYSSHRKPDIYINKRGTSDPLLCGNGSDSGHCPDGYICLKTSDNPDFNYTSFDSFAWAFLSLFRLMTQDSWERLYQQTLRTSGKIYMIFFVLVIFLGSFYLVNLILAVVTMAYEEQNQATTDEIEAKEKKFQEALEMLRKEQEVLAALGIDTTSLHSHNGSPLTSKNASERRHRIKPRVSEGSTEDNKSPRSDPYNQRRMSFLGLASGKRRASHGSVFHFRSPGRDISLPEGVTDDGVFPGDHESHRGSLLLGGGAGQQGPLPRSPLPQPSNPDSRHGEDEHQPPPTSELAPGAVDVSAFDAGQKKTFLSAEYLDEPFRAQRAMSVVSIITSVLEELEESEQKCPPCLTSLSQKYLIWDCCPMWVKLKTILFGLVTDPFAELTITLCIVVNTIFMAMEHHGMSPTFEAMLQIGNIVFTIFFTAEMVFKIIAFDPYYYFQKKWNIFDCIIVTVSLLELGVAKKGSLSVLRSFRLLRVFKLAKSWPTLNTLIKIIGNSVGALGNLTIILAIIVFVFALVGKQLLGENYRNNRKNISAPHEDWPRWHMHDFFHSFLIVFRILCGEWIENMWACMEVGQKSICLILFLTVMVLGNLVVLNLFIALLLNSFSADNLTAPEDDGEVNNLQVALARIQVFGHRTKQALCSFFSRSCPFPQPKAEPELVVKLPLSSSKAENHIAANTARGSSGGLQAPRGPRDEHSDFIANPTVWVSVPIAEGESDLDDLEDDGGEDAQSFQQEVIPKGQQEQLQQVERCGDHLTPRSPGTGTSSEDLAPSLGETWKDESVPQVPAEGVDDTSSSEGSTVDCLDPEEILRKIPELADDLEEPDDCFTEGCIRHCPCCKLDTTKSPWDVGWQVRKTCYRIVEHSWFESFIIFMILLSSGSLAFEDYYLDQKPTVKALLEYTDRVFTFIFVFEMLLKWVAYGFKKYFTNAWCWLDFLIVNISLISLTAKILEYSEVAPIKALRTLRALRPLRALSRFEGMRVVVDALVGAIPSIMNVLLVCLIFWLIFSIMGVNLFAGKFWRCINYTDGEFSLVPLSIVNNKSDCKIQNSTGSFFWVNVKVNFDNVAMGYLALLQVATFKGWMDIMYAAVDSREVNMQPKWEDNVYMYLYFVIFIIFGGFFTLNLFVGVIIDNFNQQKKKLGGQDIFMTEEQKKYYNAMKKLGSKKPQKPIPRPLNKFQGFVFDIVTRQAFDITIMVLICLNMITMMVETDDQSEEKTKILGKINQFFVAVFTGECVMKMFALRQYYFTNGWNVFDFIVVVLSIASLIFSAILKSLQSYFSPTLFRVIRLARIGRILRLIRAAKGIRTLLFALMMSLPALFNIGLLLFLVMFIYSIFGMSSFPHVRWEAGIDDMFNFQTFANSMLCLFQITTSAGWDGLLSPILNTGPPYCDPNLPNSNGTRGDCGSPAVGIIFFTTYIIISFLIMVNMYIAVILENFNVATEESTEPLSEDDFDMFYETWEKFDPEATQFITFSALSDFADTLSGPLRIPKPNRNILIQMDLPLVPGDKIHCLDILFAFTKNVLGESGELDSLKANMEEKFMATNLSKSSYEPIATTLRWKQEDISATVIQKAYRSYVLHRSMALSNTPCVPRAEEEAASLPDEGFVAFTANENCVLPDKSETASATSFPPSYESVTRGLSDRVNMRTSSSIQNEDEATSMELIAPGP
binder,measurement,setting,value
B1,EC50,huNav1.7α+β1 [1],1.2 nM
same,binding result,huNav1.5α+β1-β2-β3,no binding
same,EC50,huNav1.7α+β1-β2-β3 [2],3.1 nM
same,EC50,[3],3.6 nM
same,binding result,rhNav1.7α+β1-β2-β3,no binding
same,EC50,huNav1.7α [4],2.7 nM
same,binding result,huNav1.2α,no binding
same,binding result,huNav1.5α,no binding
same,binding result,huNav1.8α,no binding
same,binding result,huNav1.1α,no binding
same,binding result,huNav1.4α,no binding
same,binding result,huNav1.3α,no binding
same,binding result,huNav1.6α,no binding
same,EC50,huNav1.7α+β1-β2-β3 [5],4.7 nM
same,EC50,huNav1.7α+β1 [6],1.7 nM
B2,Qpatch IC50,huNav1.7α + β1 [7],1 nM
B3,EC50,huNav1.7α+β1 [1],28 nM
same,binding result,huNav1.5α+β1-β2-β3,no binding
same,EC50,huNav1.7α+β1-β2-β3 [2],37 nM
same,EC50,[3],39 nM
same,EC50,huNav1.7α+β1-β2-β3 [8],27 nM
same,EC50,huNav1.7α [9],10 nM
same,binding result,huNav1.2α,no binding
same,binding result,huNav1.5α,no binding
same,binding result,huNav1.8α,no binding
same,binding result,huNav1.1α,no binding
same,binding result,huNav1.4α,no binding
same,binding result,huNav1.3α,no binding
same,binding result,huNav1.6α,no binding
same,EC50,huNav1.7α+β1 [10],48 nM
B4,EC50,huNav1.7α + β1 [11],42 nM
same,EC50,huNav1.7α [12],61 nM
same,"Qpatch IC50 [M], HEK cells",huNav1.7α + β1 [13],9.2e-08 M
same,"Qpatch IC50 [M], HEK cells",rhNav1.7α + β1-β2-β3 [14],5.2e-08 M
B5,Qpatch IC50,huNav1.7α + β1 [15],85 nM
same,Qpatch IC50,rhNav1.7α + β1-β2-β3 [16],199 nM
same,EC50,huNav1.7α + β1 [11],11 nM
same,EC50,huNav1.7α [12],5.4 nM
same,"Qpatch IC50 [M], HEK cells",huNav1.7α + β1 [13],8.5e-08 M
same,"Qpatch IC50 [M], HEK cells",rhNav1.7α + β1-β2-β3 [14],1.8e-07 M
B6,Qpatch IC50,huNav1.7α + β1-β2-β3 [17],2.6 nM
same,Qpatch IC50,Rhesus Nav1.7α,93 nM
same,Qpatch IC50,huNav1.7α [18],123 nM
same,Qpatch IC50,rhNav1.7α + β1-β2-β3 [19],2.8 nM
same,IC50,huNav1.7α + β1-β2-β3 [20],10 nM
same,IC50,huNav1.7α + β1-β2-β3 [21],12 nM
same,IC50,huNav1.7α + β1 [22],4.3 nM
same,IC50,huNav1.7α [23],110 nM
same,IC50,rhNav1.7α + β1-β2-β3 [24],6.5 nM
B7,Qpatch IC50,huNav1.7α + β1 [7],38 nM
